From patent US20220402983A1 (Janssen / Centocor, published 2022)
*1 amine or outer side, *2 acyl side, *3 side chain or, on linkers, in order; H or OH if unused. Bridges are numbered along the chain shown (N, C = ends). Where no end group is shown, it is not given here. [ ]: non-standard residue; d: D form. The star is where a group is joined. Trp(7-Me) = Cc1cccc2c(C[C@H](N)C(=O)O)c[nH]c12; 2Nal = N[C@@H](Cc1ccc2ccccc2c1)C(=O)O; AEF = NCCOc1ccc(C[C@H](N)C(=O)O)cc1; αMeF = C[C@](N)(Cc1ccccc1)C(=O)O; NMeβAla = CN(CCC(=O)[*:2])[*:1]; Pen = CC(C)(S)[C@H](N)C(=O)O; αMeK = C[C@](N)(CCCCN)C(=O)O; 3Quin = not defined here; Ac5c = NC1(C(=O)O)CCCC1; Thp = NC1(C(=O)O)CCOCC1; Piv = CC(C)(C)C(=O)*; Propionyl = CCC(=O)*; Tfa = O=C(C(F)(F)F)*

T1: human IL-23R (interleukin-23 receptor) (human, UniProt Q5VWK5 24-629)
T1 sequence (looked up): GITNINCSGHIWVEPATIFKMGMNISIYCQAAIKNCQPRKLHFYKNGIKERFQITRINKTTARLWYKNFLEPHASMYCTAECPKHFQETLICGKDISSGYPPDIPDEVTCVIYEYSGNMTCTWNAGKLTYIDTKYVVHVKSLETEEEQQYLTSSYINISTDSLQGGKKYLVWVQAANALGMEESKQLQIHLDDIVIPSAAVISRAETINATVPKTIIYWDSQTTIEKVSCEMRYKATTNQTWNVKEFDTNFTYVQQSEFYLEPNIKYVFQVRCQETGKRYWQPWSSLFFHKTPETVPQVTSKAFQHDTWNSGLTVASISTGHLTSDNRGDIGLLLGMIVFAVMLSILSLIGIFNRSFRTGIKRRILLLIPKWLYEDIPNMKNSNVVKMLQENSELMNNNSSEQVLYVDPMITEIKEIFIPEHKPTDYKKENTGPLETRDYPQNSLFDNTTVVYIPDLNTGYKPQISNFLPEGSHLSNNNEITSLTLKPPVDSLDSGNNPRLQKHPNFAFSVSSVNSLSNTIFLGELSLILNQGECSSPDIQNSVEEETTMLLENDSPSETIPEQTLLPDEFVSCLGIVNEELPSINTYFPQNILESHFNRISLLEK


Experiments:
[1] = target: T1, human IL-23R (interleukin-23 receptor); experiment: cell-based or functional assay
[2] = target: T1, human IL-23R (interleukin-23 receptor); experiment: cell-based or functional assay; remark: listed apart in the source

| Binder | PBMC pSTAT3 IC50 (nM) [1] [nM] | pStat3 HTRF (nM), IC50, DB cells IL23R pSTAT3 cell assay [1] [nM] | NK Cell Assay (nM), IC50, IFN-gamma after IL-23 and IL-18 [2] [nM] |
| --- | --- | --- | --- |
| Ac-[dR][Pen]NT[Trp(7-Me)]Q[Pen][AEF][2Nal][Thp]EN[αMeF]-NH2 (disulfide 2-7; SMILES CC(=O)N[C@H](CCCNC(=N)N)C(=O)N[C@@H]1C(=O)N[C@@H](CC(N)=O)C(=O)N[C@@H]([C@@H](C)O)C(=O)N[C@@H](Cc2c[nH]c3c(C)cccc23)C(=O)N[C@@H](CCC(N)=O)C(=O)N[C@H](C(=O)N[C@@H](Cc2ccc(OCCN)cc2)C(=O)N[C@@H](Cc2ccc3ccccc3c2)C(=O)NC2(C(=O)N[C@@H](CCC(=O)O)C(=O)N[C@@H](CC(N)=O)C(=O)N[C@@](C)(Cc3ccccc3)C(N)=O)CCOCC2)C(C)(C)SSC1(C)C) [Compound No. 91] | 4.1 |  |  |
| Propionyl-[dR][Pen]QTWQ[Pen][AEF][2Nal][Thp]K(Tfa)N[Thp]-NH2 (disulfide 2-7; SMILES CCC(=O)N[C@H](CCCNC(=N)N)C(=O)N[C@@H]1C(=O)N[C@@H](CCC(N)=O)C(=O)N[C@@H]([C@@H](C)O)C(=O)N[C@@H](Cc2c[nH]c3ccccc23)C(=O)N[C@@H](CCC(N)=O)C(=O)N[C@H](C(=O)N[C@@H](Cc2ccc(OCCN)cc2)C(=O)N[C@@H](Cc2ccc3ccccc3c2)C(=O)NC2(C(=O)N[C@@H](CCCCNC(=O)C(F)(F)F)C(=O)N[C@@H](CC(N)=O)C(=O)NC3(C(N)=O)CCOCC3)CCOCC2)C(C)(C)SSC1(C)C) [Compound No. 6] | 8.6 | 2.46 | 16.8 |
| Ac-[dR][Pen]NT[Trp(7-Me)]Q[Pen][AEF][2Nal][Thp]EN[Thp]-NH2 (disulfide 2-7; SMILES CC(=O)N[C@H](CCCNC(=N)N)C(=O)N[C@@H]1C(=O)N[C@@H](CC(N)=O)C(=O)N[C@@H]([C@@H](C)O)C(=O)N[C@@H](Cc2c[nH]c3c(C)cccc23)C(=O)N[C@@H](CCC(N)=O)C(=O)N[C@H](C(=O)N[C@@H](Cc2ccc(OCCN)cc2)C(=O)N[C@@H](Cc2ccc3ccccc3c2)C(=O)NC2(C(=O)N[C@@H](CCC(=O)O)C(=O)N[C@@H](CC(N)=O)C(=O)NC3(C(N)=O)CCOCC3)CCOCC2)C(C)(C)SSC1(C)C) [Compound No. 90] | 3.7 |  |  |
| Ac-[dR][Pen]NT[Trp(7-Me)]Q[Pen][AEF][2Nal][Ac5c]EN[αMeF]-NH2 (disulfide 2-7; SMILES CC(=O)N[C@H](CCCNC(=N)N)C(=O)N[C@@H]1C(=O)N[C@@H](CC(N)=O)C(=O)N[C@@H]([C@@H](C)O)C(=O)N[C@@H](Cc2c[nH]c3c(C)cccc23)C(=O)N[C@@H](CCC(N)=O)C(=O)N[C@H](C(=O)N[C@@H](Cc2ccc(OCCN)cc2)C(=O)N[C@@H](Cc2ccc3ccccc3c2)C(=O)NC2(C(=O)N[C@@H](CCC(=O)O)C(=O)N[C@@H](CC(N)=O)C(=O)N[C@@](C)(Cc3ccccc3)C(N)=O)CCCC2)C(C)(C)SSC1(C)C) [Compound No. 93] | 4.6 |  |  |
| Ac-[Pen]NT[Trp(7-Me)]K(Ac)[Pen][AEF][3Quin][αMeK]K(Ac)N[dL]-NH2 (disulfide 1-6; reading uncertain; also: printed as Ac-[Pen]-N-T-[W(7-Me)]-[Lys(Ac)]-[Pen]-Phe[4-(2-aminoethoxy)]-[3-Quin]-[a-MeLys]-[Lys(Ac)]-N-[(D)Leu)]-NH2) [Compound No. 1] |  | 0.602 | 2.89 |
| Ac-[dR][Pen]QTWQ[Pen][AEF][2Nal][Thp]EN[αMeF]-NH2 (disulfide 2-7; SMILES CC(=O)N[C@H](CCCNC(=N)N)C(=O)N[C@@H]1C(=O)N[C@@H](CCC(N)=O)C(=O)N[C@@H]([C@@H](C)O)C(=O)N[C@@H](Cc2c[nH]c3ccccc23)C(=O)N[C@@H](CCC(N)=O)C(=O)N[C@H](C(=O)N[C@@H](Cc2ccc(OCCN)cc2)C(=O)N[C@@H](Cc2ccc3ccccc3c2)C(=O)NC2(C(=O)N[C@@H](CCC(=O)O)C(=O)N[C@@H](CC(N)=O)C(=O)N[C@@](C)(Cc3ccccc3)C(N)=O)CCOCC2)C(C)(C)SSC1(C)C) [Compound No. 97] | 31 |  |  |
| Ac-[Pen]NTWK(Ac)[Pen][AEF][2Nal][αMeK]K(Ac)N[Thp]-NH2 (disulfide 1-6; SMILES CC(=O)NCCCC[C@@H]1NC(=O)[C@H](Cc2c[nH]c3ccccc23)NC(=O)[C@H]([C@@H](C)O)NC(=O)[C@H](CC(N)=O)NC(=O)[C@@H](NC(C)=O)C(C)(C)SSC(C)(C)[C@@H](C(=O)N[C@@H](Cc2ccc(OCCN)cc2)C(=O)N[C@@H](Cc2ccc3ccccc3c2)C(=O)N[C@@](C)(CCCCN)C(=O)N[C@@H](CCCCNC(C)=O)C(=O)N[C@@H](CC(N)=O)C(=O)NC2(C(N)=O)CCOCC2)NC1=O) [Compound No. 95] | 22 |  |  |
| Propionyl-[dR][Pen]QTWQ[Pen][AEF][2Nal][Thp]K(Piv)N[Thp]-NH2 (disulfide 2-7; SMILES CCC(=O)N[C@H](CCCNC(=N)N)C(=O)N[C@@H]1C(=O)N[C@@H](CCC(N)=O)C(=O)N[C@@H]([C@@H](C)O)C(=O)N[C@@H](Cc2c[nH]c3ccccc23)C(=O)N[C@@H](CCC(N)=O)C(=O)N[C@H](C(=O)N[C@@H](Cc2ccc(OCCN)cc2)C(=O)N[C@@H](Cc2ccc3ccccc3c2)C(=O)NC2(C(=O)N[C@@H](CCCCNC(=O)C(C)(C)C)C(=O)N[C@@H](CC(N)=O)C(=O)NC3(C(N)=O)CCOCC3)CCOCC2)C(C)(C)SSC1(C)C) [Compound No. 7] | 8.6 | 3.87 | 12.6 |
| [dR][Pen]QTWQ[Pen][AEF][2Nal][Thp]EN[Thp]-NH2 (disulfide 2-7; not fully specified (N-terminus)) [Compound No. 9] | 29 | 3.12 | 11.6 |
| Ac-[dR][Pen]NT[Trp(7-Me)]K(Ac)[Pen][AEF][2Nal][Thp]K(Ac)N[αMeF]-NH2 (disulfide 2-7; SMILES CC(=O)NCCCC[C@@H]1NC(=O)[C@H](Cc2c[nH]c3c(C)cccc23)NC(=O)[C@H]([C@@H](C)O)NC(=O)[C@H](CC(N)=O)NC(=O)[C@@H](NC(=O)[C@@H](CCCNC(=N)N)NC(C)=O)C(C)(C)SSC(C)(C)[C@@H](C(=O)N[C@@H](Cc2ccc(OCCN)cc2)C(=O)N[C@@H](Cc2ccc3ccccc3c2)C(=O)NC2(C(=O)N[C@@H](CCCCNC(C)=O)C(=O)N[C@@H](CC(N)=O)C(=O)N[C@@](C)(Cc3ccccc3)C(N)=O)CCOCC2)NC1=O) [Compound No. 111] |  | 1.29 | 6.51 |
| Propionyl-[dR][Pen]QTWQ[Pen][AEF][2Nal][Thp]EN[NMeβAla]-NH2 (disulfide 2-7; SMILES CCC(=O)N[C@H](CCCNC(=N)N)C(=O)N[C@@H]1C(=O)N[C@@H](CCC(N)=O)C(=O)N[C@@H]([C@@H](C)O)C(=O)N[C@@H](Cc2c[nH]c3ccccc23)C(=O)N[C@@H](CCC(N)=O)C(=O)N[C@H](C(=O)N[C@@H](Cc2ccc(OCCN)cc2)C(=O)N[C@@H](Cc2ccc3ccccc3c2)C(=O)NC2(C(=O)N[C@@H](CCC(=O)O)C(=O)N[C@@H](CC(N)=O)C(=O)N(C)CCC(N)=O)CCOCC2)C(C)(C)SSC1(C)C) [Compound No. 8] |  | 24.6 | 72.3 |
| Ac-[dR][Pen]NT[Trp(7-Me)]K(Ac)[Pen][AEF][2Nal][Ac5c]EN[αMeF]-NH2 (disulfide 2-7; SMILES CC(=O)NCCCC[C@@H]1NC(=O)[C@H](Cc2c[nH]c3c(C)cccc23)NC(=O)[C@H]([C@@H](C)O)NC(=O)[C@H](CC(N)=O)NC(=O)[C@@H](NC(=O)[C@@H](CCCNC(=N)N)NC(C)=O)C(C)(C)SSC(C)(C)[C@@H](C(=O)N[C@@H](Cc2ccc(OCCN)cc2)C(=O)N[C@@H](Cc2ccc3ccccc3c2)C(=O)NC2(C(=O)N[C@@H](CCC(=O)O)C(=O)N[C@@H](CC(N)=O)C(=O)N[C@@](C)(Cc3ccccc3)C(N)=O)CCCC2)NC1=O) [Compound No. 94] | 12 |  |  |
